{"source": "patent US20210292393A1", "about": "(published 2021)", "key": {"[1]": {"biological_target": "SARS-CoV-2 full length spike protein, V483A mutant (SARS-CoV-2, UniProt P0DTC2 14-1273)"}, "[2]": {"biological_target": "SARS-CoV-2 spike protein with D614G mutation (SARS-CoV-2, UniProt P0DTC2 14-1208)"}, "[3]": {"biological_target": "SARS-CoV-2 full length spike protein, V483A mutant (SARS-CoV-2, UniProt P0DTC2 14-1273)", "remark": "listed apart in the source"}}}
{"binder": "antibody 260 (antibody, V domains shown) VH: EVQLVESGGGLVQPGRSLRLSCAASGFTFDYYAMHWVRQAPGKGLEWVSGISWNSGTIGYADSVKGRFTISRDNAKNSLYLQMNSLRAEDTALYYCAKDSRPSGRYYYGMDVWGQGTTVTVSS VL: not shown", "values": [{"measurement": "median fluorescence intensity, fold over isotype control", "setting": "[1]", "value": 11, "unit": "fold over isotype"}]}
{"binder": "anti-SARS-CoV-2 antibody 1027 (antibody, V domains shown) VH: EVQLVESGGGLVQPGGSLRLSCAASGFTVSSNYMSWVRQAPGKGLEWVSIIYSGGSTFYADSVKGRFTISRDSSKNTLYLQMSSLRAEDTAVYYCARDLDYYGMDVWGQGTTVTVSS VL: DIQLTQSPSFLSAPVGDRVTITCRASQGISSYLAWYQQKPGKAPKLLIYGASTLQSGVPSRFSGSGSGTEFTLTISSLQPEDFATYYCQQLNSYQRFTFGPGTKVEIK", "values": [{"measurement": "Kd", "setting": "[2]", "value": 0.043, "unit": "nM"}]}
{"binder": "anti-SARS-CoV-2 antibody 1009 (antibody, V domains shown) VH: QLQLQESGPGLVKPSQTLSLTCTVSGGSISSGSYYWSWIRQPAGKGLEWIGSIYTSGSTYYNPSLKSRVTISVDTSKNQFSLKLSSVTAADTAVYYCARKNWLQGSFDYWGQGTLVIVSS VL: NFMLTQPHSVSESPGKTVTISCTRSSGSIANNYVQWYQQRPGSAPTTVIYEDNQRPSGVPDRFSGSIDSSSNSASLTISGLKTEDEADYYCQSYDTSNHGVFGGGTKLTVL", "values": [{"measurement": "Kd", "setting": "[2]", "value": 0.034, "unit": "nM"}]}
{"binder": "anti-SARS-CoV-2 antibody 1012 (antibody, V domains shown) VH: EVQVVESGGGLVQPGGSRRLSCTASGFTLRNYWMSWVRQAPGKGLEWVANIKQDGSEKYYVDSVKGRFTISRDNAKNSLYLQMDSLRAEDTAVYYCARGGRYCPGGSCPRWGRGTLVTVSS VL: DIQMTQSPSSLSASVGDRVTITCQASQDISNFLNWYQLKPGEAPTLLIFDASKLETGVPSRFSGTGFGTDFTFTISSLQPEDTATYYCQQYDDLTSITLGQGTRLEIK", "values": [{"measurement": "Kd", "setting": "[2]", "value": 0.027, "unit": "nM"}]}
{"binder": "anti-SARS-CoV-2 antibody 1091 (antibody, V domains shown) VH: EVQLVESGGGLVKPGGSLRLSCAASGFPFITYSMNWVRQAPGKGLEWVSSISRNSDYIYYADSVRGRVTISRDNAENSLYLQMHSLRAEDTAVYYCARDVVRSGNYYIPRHGMDVWGRGTTVTVSS VL: QSVLTQPPSASGTPGQRVTISCSGTSSNIGSNTVNWYQQLPETAPKLLIYGTDQRPSGVPDRFSGSKSGTSASLAISRLQSEDEADYYCATRDDSLSGPVFGGGTQLTVL", "values": [{"measurement": "Kd", "setting": "[2]", "value": 0.019, "unit": "nM"}]}
{"binder": "anti-SARS-CoV-2 antibody 1203 (antibody, V domains shown) VH: QLRLQESGPGLVKPSETLSLTCTVSGGSISSSNFYWGWIRQPPGKGLEWIGSIYYSGSTHYNPSLKSRVTVSVDTSKNQFSLKLSSVTAADTAVYYCARLTYYYDSSGFIRAEPFDYWGQGILVTVSS VL: not shown", "values": [{"measurement": "Kd", "setting": "[2]", "value": 0.079, "unit": "nM"}]}
{"binder": "anti-SARS-CoV-2 antibody 923 (antibody, V domains shown) VH: EVQLVESGGGVVRPGGSLRLSCAASGFIFDDYDMTWVRQAPGKGLEWVSGISWNGGNTGYADSVKGRFTISRDNAKNSLYLQMNSLRAEDTALYHCAVIMSPIPRYSGYDWAGGAFDIWGQGTMVTVSS VL: SSELTQDPAVSVALGQTVRITCQGDSLRSYYASWYQQKPGQVPILVIYDKNNRPSGIPDRFSGSSSGNTASLTITGAQAEDEADYYCNSRDSSGNAVVFGGGTKLTVL", "values": [{"measurement": "Kd", "setting": "[2]", "value": 0.022, "unit": "nM"}]}
{"binder": "anti-SARS-CoV-2 antibody 1081 (antibody, V domains shown) VH: EVQLVQSGAEVKKPGESLKISCKRSGYSFTTYWIGWVRQMPGKGLEWMGSIYPGDSDTRYSPSFQGQVTISADKSISTAYLQWSSLKASDTAMYYCASQEVPGYYYYMDVWGKGTTVTVSS VL: DIQMTQSPSSLSASVGDRVTITCRASQSISSYLHWYQQKPGKAPKLLIYAASSLQSGVPSRFSGSGSGTDFTLTISSLQPEDFATYYCQQTYSTHTWTFGQGTKVEIK", "values": [{"measurement": "Kd", "setting": "[2]", "value": 0.041, "unit": "nM"}]}
{"binder": "anti-SARS-CoV-2 antibody 1098 (antibody, V domains shown) VH: DVQLVQSGAEVKKPGESLKISCKGSGYRFTSYWIAWVRQMPGKGLEWMGIIYPGDSDTRYSPSFQGQVTISADKSISTAYLQWSSLKASDTAMYYCASQAAAGYFYYMDVWGKGTTVTVSS VL: not shown", "values": [{"measurement": "Kd", "setting": "[2]", "value": 0.022, "unit": "nM"}]}
{"binder": "anti-SARS-CoV-2 antibody 933 (antibody, V domains shown) VH: QVQLVQSGAEVKKPGASVKVSCKASGYTFTTYDINWVRQATGQGLEWMGWMNPNSGYTDSAQKFQGRVTMTRNTSISTAYMELSSLRSEDTAVYYCASGRGVKTYYFDYWGQGTLVTVSS VL: SYELTQPPSVSVSPGQTASITCSGDKLGDKSACWYQQKPGQSPVLVICQDTKRPSGIPERFSGSNSGNTATLTISGTQAMDEADYYCQAWDSRTVVFGGGTKLTVL", "values": [{"measurement": "Kd", "setting": "[2]", "value": 29, "unit": "nM"}]}
{"binder": "antibody 265 (antibody, V domains shown) VH: EVQLVQSGAEVKKPGATVKVSCKFSGDTFSHYYIHWVQQAPGKGLEWMGLVDPQDGESEYAQKFQGKVTITADTSIDTSYLEVTSLRFDDTAFYFCATRGMSGAFDRWGQGTLVTVSS VL: DIVMTQSPDSLAVSLGERATINCKSSQSILSTSNNKNYLAWYQQKPGQPPKLLIYWASTRESGVPDRFSGGGSGTDFTLTISSLQAEDVAVYYCQQYYRTAYTTPIYTFGQGTKLEIK", "values": [{"measurement": "median fluorescence intensity, fold over isotype control", "setting": "[1]", "value": 14.5, "unit": "fold over isotype"}]}
{"binder": "anti-SARS-CoV-2 antibody 1000 (antibody, V domains shown) VH: EVQLVESGGGLVQPGRSLRLSCAASGFTFDDYAMHWVRQAPGEGLEWVSGISWNSGSIGYADSVKGRFTISRDNAKNSLYLQMNSLRAEDTALYYCAKDTRFSFGTIAAAVSGYGMDVWGQGTTVTVSS VL: QSALTQPASVSGSPGQSITISCTGTSSDVGIFNLVSWYQQHPGKAPKLMIYEVTKRPSGVSNRFSGSKSGNTASLTISGLQAEDEADYYCCSYAGSYVFGTGTKVTVL", "values": [{"measurement": "Kd", "setting": "[2]", "value": 0.016, "unit": "nM"}]}
{"binder": "anti-SARS-CoV-2 antibody 1075 (antibody, V domains shown) VH: QVQLVQSGAEVKKPGASVKVSCKVSGYTLIELSMHWVRQAPGKGLEWMGGFDPEDGETIYAQKFQGRVTMTEDTSTDTAYMELSSLRSEDTAVYYCATEWAYYGSGSYLGYWGQGTLVTVSS VL: EIVMTQSPATLSVSPGERATLSCRASQSVSSNLAWFQQKPGQAPRLLIYGASTRVTVIPARFSGSGSGTEFTLTISSLQSEDFAVYYCQQYNNWPRTFGQGTKVEIK", "values": [{"measurement": "Kd", "setting": "[2]", "value": 0.023, "unit": "nM"}]}
{"binder": "anti-SARS-CoV-2 antibody 966 (antibody, V domains shown) VH: QVQLVESGGGVVQPGRSLRLSCAASEFTFSSYGMHWVRQAPGKGLEWVAVISHDGSNEYYADSVKGRFTISRDNSKNTLYLQMNSLRAEDTAVYYCAKWRGPHRGYYDRSGYYLGSSRDDYWGQGTLVTVSS VL: not shown", "values": [{"measurement": "Kd", "setting": "[2]", "value": 1.3, "unit": "nM"}]}
{"binder": "anti-SARS-CoV-2 antibody 1118 (antibody, V domains shown) VH: EVQLVESGGGLVQPGGSLRLSCAASGFRFSNYEMNWVRQAPGKGLEWVSYISSTGGSIFYADSVKGRFTISRGDAKNSVYLQMNSLRAEDTAVYYCARAMYYYGSGTLDYWGQGTLVTVSS VL: DIQMTQSPSSLSASVGDRVTITCRASQSISRFLNWYQQKPGTAPKLLIYDVSSLQSGVPTRFSGSGSGTDFTLTISSLQPEDFATYYCQQSYTTPPAFGPGTRVDIK", "values": [{"measurement": "Kd", "setting": "[2]", "value": 0.044, "unit": "nM"}]}
{"binder": "anti-SARS-CoV-2 antibody 1037 (antibody, V domains shown) VH: QITLKESGPTLVKPTQTLTLTCTFSGFSLSTSGVGVGWIRQPPGKALEWLALIYWDDDKRYSPSLKSRLTITKDTSKNQVVLTMTNMDPVDTATYYCAHHTITRINDYWGQGTLVTVSS VL: QSALTQPASVSGSPGQSITISCTATSSDVGAYNYVSWYQQHPGKAPKLMIYDVSKRPSGVSNRFSGSKSGNTASLTISGLQAEDEADYYCSSYTSSSTVFGGGTKLTVL", "values": [{"measurement": "Kd", "setting": "[2]", "value": 0.023, "unit": "nM"}]}
{"binder": "anti-SARS-CoV-2 antibody 989 (antibody, V domains shown) VH: QVQLQESGPGLVKPSQTLSLTCTVSGGSISSGSYYWSWIRQPAGKGLEWIGRIYTSGSTNYNPSLKSRVTMSVDTSKNHFSLKLRSVTAADTAVYYCARGIAVAGDDDYYYYYGLDVWGQGTTVTVSS VL: SYELTQPPSVSVSPGQTARITCSGDALPKQYAYWYQQKPGQAPVMVINKDSERPSGIPERFSGSSSGTTVTLTISGVQAEDEADYYCHSADSSGTYWVFGGGTKLTVL", "values": [{"measurement": "Kd", "setting": "[2]", "value": 0.039, "unit": "nM"}]}
{"binder": "antibody 556 (antibody, V domains shown) VH: QVQLVESGGGVVQPGRSLRLSCAASGFTFSSYAMHWVRQAPGKGLEWVAVISYDGSDKYYADSVKGRVTISRDNSKNTLYLQMNSLRVEDTAVFYCAKDDCSGGVCFPDYWGQGTLVTVSS VL: QSALTQPASVSGSPGQSITISCTGTSSDVGGYNYVSWYQQHPGKAPKLMIYEVSIRPSGVSNRFSGSKSGNTASLTISGLQAEDEAAYYCSSYTSSSTLVFGGGTKLTVL", "values": [{"measurement": "median fold over isotype", "setting": "[3]", "value": 7.35, "unit": "fold over isotype"}]}
{"binder": "anti-SARS-CoV-2 antibody 1193 (antibody, V domains shown) VH: EVQLVESGGGLVQPGGSLRLSCAASGFTFSSYYMNWVRQAPGKGLEWVSYISSGSSIIYYADSVKGRFTISRDNAKNSLYLQMNSLRDEDTAVYYCARDSPLRYFDWQLGGGFDYWGQGTLVTVSS VL: QSALTQPASVSGSPGQSITISCTGTSSDVGGYNYVSWYQQHPGKAPKLMIYDVSNRPSGVSNRFSGSKSGNTASLTISGLQAEDEADYYCSSYTSSSLWVFGGGTKLTVL", "values": [{"measurement": "Kd", "setting": "[2]", "value": 0.041, "unit": "nM"}]}
{"binder": "anti-SARS-CoV-2 antibody 1015 (antibody, V domains shown) VH: EVQLVESGGGLVQPGGSLRLSCAASGFTFSSYWMHWVRQAPGKGLVWVSHINSDGSSTSYADSVKGRFTISRDNAKNTLYLQMNSLRAEDTAVYYCARGLRYFDLDVWGQGTTVTVSS VL: QSVLTQPPSVSEAPRQRVTISCSGSSSNIGNNAVNWYQQLPGKAPKLLIFYDDLLPSGVSDRFSGSKSGTSASLAISGLQSEDEADYYCAAWDDSLNGGVFGGGTKLTVL", "values": [{"measurement": "Kd", "setting": "[2]", "value": 0.02, "unit": "nM"}]}
{"binder": "antibody 263 (antibody, V domains shown) VH: EVQLVQSGAEVKKPGATVKISCKVSGYTFTDYYMHWVQQAPGKGLEWMGLVDPEDGETIYAEKFQGRVTITADTSTDTAYMELSSLRSDDTAVYYCTTDLAFTIFGGRRGFDPWGQGTLVTVSS VL: DIQLTQSPSFLSASVGDRVTITCRASQGISSYLAWYQQKPGKAPKLLIYAASTLQSGVPSRFSGSGSGTEFTLTISSLQPEDFATYYCQQLNSYDFGQGTRLEIK", "values": [{"measurement": "median fluorescence intensity, fold over isotype control", "setting": "[1]", "value": 17.3, "unit": "fold over isotype"}]}
{"binder": "antibody 560 (antibody, V domains shown) VH: EVQLVESGGGLVQPGGSLRLSCAASGFTISSNYMSWVRQAPGKGLEWVSVIYSGGSTYYADSVKGRFTISRDNSKNTLYLQMNSLRAEDTAVYYCAREEGEWEKDYYGMDVWGQGTTVTVSS VL: not shown", "values": [{"measurement": "median fold over isotype", "setting": "[3]", "value": 14.8, "unit": "fold over isotype"}]}
{"binder": "antibody 264 (antibody, V domains shown) VH: QVHLVESGGGVVQPGRSLRLSCAASGFTLTSYAMHWVRQAPGKGLEWVALISYDGSVKKYAESVKGRITVSGDNSRNTLHLQINTLRADDTAVYYCVRGGVSGPNSFDLWGQGTMVTVSS VL: DVVMTQSPLSLPVTLGQPASISCRSSQSLEYSDGNTYVNWFQQRPGQSPRRLIYQVSNRASGVPDRFSGSGSGTDFTLQISRVEAEDVGIYYCMQGTHWPVTFGQGTKVEIK", "values": [{"measurement": "median fluorescence intensity, fold over isotype control", "setting": "[1]", "value": 11.1, "unit": "fold over isotype"}]}
